Key:
Assay in all cases: pull-down
[1] = target: GST-Gαi3 wild type (rat) (rat) (UniProt P08753)
GST-Gαs (human) (human) = GST-Gαs (human) (human) (UniProt P63092)
[2] = target: GST-Gαi3 G203A (rat, inactive mutant) (rat) (UniProt P08753)

Chain of UniProt P63092 (P63092 2-394): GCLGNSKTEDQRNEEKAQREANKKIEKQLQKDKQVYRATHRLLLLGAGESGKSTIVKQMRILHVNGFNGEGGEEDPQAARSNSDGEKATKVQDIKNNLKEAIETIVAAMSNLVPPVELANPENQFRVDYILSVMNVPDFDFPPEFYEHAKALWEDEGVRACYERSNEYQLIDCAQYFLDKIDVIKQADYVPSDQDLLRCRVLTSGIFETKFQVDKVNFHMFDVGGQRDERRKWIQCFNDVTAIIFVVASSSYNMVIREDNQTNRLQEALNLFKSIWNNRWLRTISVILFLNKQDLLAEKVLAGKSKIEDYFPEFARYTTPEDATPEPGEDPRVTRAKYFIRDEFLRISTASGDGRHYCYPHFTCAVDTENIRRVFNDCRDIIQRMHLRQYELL

GIV S1416A, in vitro translated (natural protein)
percent of GIV bound to GST-Gαi3 [1]: 13%

GIV (Gα-interacting vesicle-associated protein), endogenous in HeLa cell lysate (natural protein)
fold less GIV bound than by GST-Gαi3 (GST-Gαs (human) (human)): 100 to 300 fold
fold more GIV bound than by Gαi3Q204L [2]: 10 to 15 fold
percent of the total GIV bound [1]: 10 to 30%

GIV S1416D, in vitro translated (natural protein)
percent of GIV bound to GST-Gαi3 [1]: 14%

GIV, full length, in vitro translated (natural protein)
fold less GIV bound than by GST-Gαi3 (GST-Gαs (human) (human)): 100 to 300 fold
fold more GIV bound than by Gαi3Q204L [2]: 10 to 15 fold
percent of GIV bound to GST-Gαi3 [1]: 14%
